Reference: patent publication EP4653467A1 (Wuhan Zhaozhi Biotechnology Co., Ltd., dated 2025)

Target: T1, CD22 on RAJI cells (UniProt P20273 20-847, limits assumed)
T1 sequence (looked up): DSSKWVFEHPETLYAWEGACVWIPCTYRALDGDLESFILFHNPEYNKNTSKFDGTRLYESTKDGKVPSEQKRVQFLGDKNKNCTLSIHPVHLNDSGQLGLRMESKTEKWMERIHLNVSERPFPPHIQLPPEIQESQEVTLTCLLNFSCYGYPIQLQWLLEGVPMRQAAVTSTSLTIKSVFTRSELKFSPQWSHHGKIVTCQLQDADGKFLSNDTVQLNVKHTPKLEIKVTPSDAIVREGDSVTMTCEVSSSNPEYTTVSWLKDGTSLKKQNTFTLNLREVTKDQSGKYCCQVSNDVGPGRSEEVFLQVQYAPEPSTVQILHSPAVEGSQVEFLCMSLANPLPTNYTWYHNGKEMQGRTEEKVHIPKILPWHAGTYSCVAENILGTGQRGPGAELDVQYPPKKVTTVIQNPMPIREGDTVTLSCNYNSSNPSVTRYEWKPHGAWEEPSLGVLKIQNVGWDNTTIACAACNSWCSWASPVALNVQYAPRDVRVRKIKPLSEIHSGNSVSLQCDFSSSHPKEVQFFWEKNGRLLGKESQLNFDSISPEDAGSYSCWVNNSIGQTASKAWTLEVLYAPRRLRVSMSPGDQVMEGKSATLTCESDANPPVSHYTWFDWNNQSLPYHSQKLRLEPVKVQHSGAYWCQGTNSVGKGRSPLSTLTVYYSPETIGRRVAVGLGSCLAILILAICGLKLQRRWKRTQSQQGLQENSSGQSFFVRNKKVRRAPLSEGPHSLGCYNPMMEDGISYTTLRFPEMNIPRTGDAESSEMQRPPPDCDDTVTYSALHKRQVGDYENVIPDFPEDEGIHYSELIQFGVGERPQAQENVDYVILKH
Assay: cell-based or functional assay

B1: CAR22 (CAR molecule targeting CD22) (other)
chain: MALPVTALLLPLALLLHAAIPDTEVQLVESGGGLVKPGGSLKLSCAASGFAFSIYDMSWVRQTPEKRLEWVAYISSGGGTYYPDTVKGRFTISRDNAKNTLYLQMSSLKSEDTAMYYCARHSGYGTHWGVLFAYWGQGTLVTVSAGGGGSGGGGSGGGGSDIQMTQTTSSLSASLGDRVTISCRASQDISNYLNWYQQKPDGTVKLLIYYTSILHSGVPSRFSGSGSGTDYSLTISNLEQEDFATYFCQQGNTLPWTFGGGTKLEIKATTTPAPRPPTPAPTIASQPLSLRPEACRPAAGGAVHTRGLDFACDFWVLVVVGGVLACYSLLVTVAFIIFWVRSKRSRLLHSDYMNMTPRRPGPTRKHYQPYAPPRDFAAYRSKRGRKKLLYIFKQPFMRPVQTTQEEDGCSCRFPEEEEGGCELRVKFSRSADAPAYQQGQNQLYNELNLGRREEYDVLDKRRGRDPEMGGKPRRKNPQEGLYNELQKDKMAEAYSEIGMKGERRRGKGHDGLYQGLSTATKDTYDALHMQALPPR
Question: With B1 as the binder, how does the “target cell lysis (calcein release), CAR-T cells on RAJI positive target cells, effector-to-target ratio 2:1” value read?
Answer: The value was 11.5%.

Question: What about the “target cell lysis (calcein release), CAR-T cells on RAJI positive target cells, effector-to-target ratio 10:1” value of the same binder?
Answer: The value was 46.9%.

Question: And the “target cell lysis (calcein release), CAR-T cells on RAJI positive target cells, effector-to-target ratio 50:1” value?
Answer: The value was 94.4%.
